Test results taken from article PMC6379965, “Expression and activity of the calcitonin receptor family in a sample of primary human high-grade gliomas” (BMC Cancer, 2019).
Read-outs that look alike come from different tables or passages of the source. Ends that are not written are not given here.

Columns and labels:
[1] = tested on: PB1 cell line; experiment: Ca2+ mobilization, PB1; type: cell-based, human; details: Fluo4-AM, FlexStation, 37 °C, pH 7.4, peak RFU, ATP 10 μM, ionomycin 1 μM, representative experiment, 3 replicates
Method: (§3) Primary patient high-grade glioma (HGG) cell lines, in vitro surrogates of glioblastoma, were developed by QIMR-Berghofer Medical Research Institute (Brisbane, Australia) and represent 3 distinct GBM subtypes: SB2b and PB1 (classical), JK2 (proneural) and WK1(mesenchymal) [37], who supplied these directly for this study. GBM cell lines were cultured as adherent monolayers on matrigel (BD Biosciences)-coated flasks using StemPro NSC SFM serum free cell culture medium (Thermo Fisher Scientific) supplemented with 20 ng/ml EGF and 20 ng/ml FGFb, 1% D-glutamine and 1% of penicillin/ streptomycin (further referred as StemPro complete medium).
(§4) GBM cell lines were seeded at 38000 cells/well (SB2b) or 35,000 cells/well (PB1 and WK1) in 96-well matrigel-coated plates and incubated for 24 h at 37 °C, 5% CO2 in humidified incubator in StemPro complete medium. […] Cells were incubated at 37°C for 60 min before ligand addition and detection of Ca^2+ mobilisation in a FlexStation 3 (Molecular Devices).

[2] = tested on: SB2b cell line; experiment: Ca2+ mobilization, SB2b; type: cell-based, human; details: Fluo4-AM, FlexStation, 37 °C, pH 7.4, peak RFU, ATP 10 μM, ionomycin 1 μM, representative experiment, 3 replicates
Method: as §3, §4

[3] = tested on: WK1 cell line; experiment: Ca2+ mobilization, WK1; type: cell-based, human; details: Fluo4-AM, FlexStation, 37 °C, pH 7.4, peak RFU, ATP 10 μM, ionomycin 1 μM, representative experiment, 3 replicates
Method: as §3, §4

[4] = tested on: WK1 cell line; experiment: cAMP accumulation, CTR agonists, WK1; type: cell-based, human; details: 1 μM forskolin
Method: (§1) Primary patient high-grade glioma (HGG) cell lines, in vitro surrogates of glioblastoma, were developed by QIMR-Berghofer Medical Research Institute (Brisbane, Australia) and represent 3 distinct GBM subtypes: SB2b and PB1 (classical), JK2 (proneural) and WK1(mesenchymal), who supplied these directly for this study. GBM cell lines were cultured as adherent monolayers on matrigel (BD Biosciences)-coated flasks using StemPro NSC SFM serum free cell culture medium (Thermo Fisher Scientific) supplemented with 20 ng/ml EGF and 20 ng/ml FGFb, 1% D-glutamine and 1% of penicillin/ streptomycin (further referred as StemPro complete medium). Cells were cultured in 5% CO2 / 95% humidified air at 37 °C.
GBM cell lines were seeded at 38000 cells/well (SB2b) or 35,000 cells/well (PB1, JK2 and WK1) in 96-well matrigel-coated plates and incubated for 24 h at 37°C, 5% CO2 in humidified incubator in StemPro complete medium. Media was replaced with stimulation buffer (phenol red free F12 media, 0.1% BSA, 0.5 mM IBMX, pH 7.4). […] Intracellular cAMP levels in the wells were determined using Lance Ultra cAMP assay kit (Perkin Elmer) according to the manufacturer’s instructions and detected using an Envision multilabel 2103 reader. […] Data were analysed by three-parameter logistic curve and are presented as percentage of 10^− 5 M forskolin response.

[5] = biological target: T1, CTR in SB2b cell line (Homo sapiens, UniProt P30988); experiment: cAMP accumulation, CTR agonists, SB2b; type: cell-based; details: read-out: Emax, cAMP accumulation
T1 construct: only one of the studied cell lines expressed functional CTR; endogenous in cells; host or cells: SB2b patient-derived high-grade glioma cell line
T1 sequence (P30988 25-474): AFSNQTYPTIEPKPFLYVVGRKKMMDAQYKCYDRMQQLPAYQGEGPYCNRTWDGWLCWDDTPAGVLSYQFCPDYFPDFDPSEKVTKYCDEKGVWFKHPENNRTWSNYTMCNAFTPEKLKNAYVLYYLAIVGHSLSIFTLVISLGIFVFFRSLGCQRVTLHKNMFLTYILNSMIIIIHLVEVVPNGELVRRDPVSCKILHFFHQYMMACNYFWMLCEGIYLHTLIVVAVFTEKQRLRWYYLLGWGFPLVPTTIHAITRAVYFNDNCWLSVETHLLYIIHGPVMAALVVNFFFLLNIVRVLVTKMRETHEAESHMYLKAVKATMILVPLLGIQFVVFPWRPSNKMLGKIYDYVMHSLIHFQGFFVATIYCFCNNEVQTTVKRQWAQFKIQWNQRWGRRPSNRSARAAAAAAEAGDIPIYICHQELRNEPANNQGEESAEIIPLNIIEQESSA
Method: as §1, with “medium).” for “medium). Cells were cultured in 5% CO2 / 95% humidified air at 37 °C.”
GBM cell lines were seeded at 38000 cells/well (SB2b) or 35,000 cells/well (PB1, JK2 and WK1) in 96-well matrigel-coated plates and incubated for 24 h at 37°C, 5% CO2 in humidified incubator in StemPro complete medium. Media was replaced with stimulation buffer (phenol red free F12 media, 0.1% BSA, 0.5 mM IBMX, pH 7.4). […] Cells were lysed (0.3% Tween 20, 5 mM Hepes, 0.1% BSA, pH 7.4) and 5 μl of cell lysate from each well was transferred to a corresponding well of 384-well optiplate. […] Data were analysed by three-parameter logistic curve and are presented as percentage of 10^− 5 M forskolin response.

[6] = biological target: calcitonin receptor (human (endogenous in SB2b)) (UniProt P30988)
[7] = biological target: CGRP (CLR/RAMP1) receptor (human (endogenous in PB1, JK2 and WK1)) (UniProt Q16602)
[8] = tested on: PB1 cell line; experiment: cAMP accumulation, CTR agonists, PB1; type: cell-based, human; details: 1 μM antagonist
Method: as §1
(§2) GBM cell lines were seeded at 38000 cells/well (SB2b) or 35,000 cells/well (PB1, JK2 and WK1) in 96-well matrigel-coated plates and incubated for 24 h at 37°C, 5% CO2 in humidified incubator in StemPro complete medium. Media was replaced with stimulation buffer (phenol red free F12 media, 0.1% BSA, 0.5 mM IBMX, pH 7.4). […] Cells were lysed (0.3% Tween 20, 5 mM Hepes, 0.1% BSA, pH 7.4) and 5 μl of cell lysate from each well was transferred to a corresponding well of 384-well optiplate. Intracellular cAMP levels in the wells were determined using Lance Ultra cAMP assay kit (Perkin Elmer) according to the manufacturer’s instructions and detected using an Envision multilabel 2103 reader. Raw RFU values were converted using a cAMP standard curve to give absolute cAMP concentrations. Data were analysed by three-parameter logistic curve and are presented as percentage of 10^− 5 M forskolin response.

[9] = tested on: JK2 cell line; experiment: cAMP accumulation, CTR agonists, JK2; type: cell-based, human; details: 1 μM antagonist
Method: as §1, §2

[10] = biological target: CGRP (CLR/RAMP1) receptor (human (endogenous in PB1, JK2 and WK1)) (UniProt Q16602); remark: listed apart in the source

Sequence of CGRP (CLR/RAMP1) receptor (human (endogenous in PB1, JK2 and WK1)) (Q16602 23-461, chain 1 of 2): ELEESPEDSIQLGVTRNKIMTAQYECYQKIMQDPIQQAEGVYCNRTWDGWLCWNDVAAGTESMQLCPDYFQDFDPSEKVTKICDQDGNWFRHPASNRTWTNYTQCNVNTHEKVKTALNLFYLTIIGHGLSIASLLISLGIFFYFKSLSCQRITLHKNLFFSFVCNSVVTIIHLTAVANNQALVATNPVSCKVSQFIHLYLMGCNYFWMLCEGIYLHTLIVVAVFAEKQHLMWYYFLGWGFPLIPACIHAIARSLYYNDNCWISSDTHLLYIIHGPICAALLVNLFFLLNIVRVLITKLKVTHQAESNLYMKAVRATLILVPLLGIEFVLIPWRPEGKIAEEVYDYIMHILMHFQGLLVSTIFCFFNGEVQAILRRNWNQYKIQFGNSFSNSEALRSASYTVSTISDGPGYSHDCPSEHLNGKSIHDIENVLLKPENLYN
Sequence of CGRP (CLR/RAMP1) receptor (human (endogenous in PB1, JK2 and WK1)) (O60894 27-148, chain 2 of 2, further chain): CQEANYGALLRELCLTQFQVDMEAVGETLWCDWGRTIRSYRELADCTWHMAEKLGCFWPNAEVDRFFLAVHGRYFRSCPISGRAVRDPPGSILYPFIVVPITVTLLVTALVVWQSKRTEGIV

Nc1ncnc2c1ncn2[C@@H]1O[C@H](COP(=O)(O)OP(=O)(O)OP(=O)(O)O)[C@@H](O)[C@H]1O [ATP]
intracellular Ca2+ mobilisation response [1]: robust response | intracellular Ca2+ mobilisation response [2]: robust response | intracellular Ca2+ mobilisation response [3]: robust response

C=C[C@@]1(C)CC(=O)[C@]2(O)[C@@]3(C)[C@@H](O)CCC(C)(C)[C@@H]3[C@H](O)[C@H](OC(C)=O)[C@@]2(C)O1 [forskolin]
increase of basal cAMP [4]: 4 fold

CC[C@H](C)[C@H](NC(=O)[C@H](C)NC(=O)[C@@H](NC(=O)[C@H](CCC(N)=O)NC(=O)[C@@H]1CCCN1C(=O)[C@H](Cc1ccccc1)NC(=O)[C@@H](NC(=O)[C@H](Cc1c[nH]cn1)NC(=O)[C@H](Cc1ccccc1)NC(=O)[C@H](CCCCN)NC(=O)[C@H](CC(N)=O)NC(=O)[C@H](Cc1ccccc1)NC(=O)[C@H](CC(=O)O)NC(=O)[C@H](CCC(N)=O)NC(=O)[C@@H](NC(=O)[C@H](Cc1ccc(O)cc1)NC(=O)[C@@H](NC(=O)CNC(=O)[C@H](CC(C)C)NC(=O)[C@H](CCSC)NC(=O)[C@@H]1CSSC[C@H](N)C(=O)NCC(=O)N[C@@H](CC(N)=O)C(=O)N[C@@H](CC(C)C)C(=O)N[C@@H](CO)C(=O)N[C@@H]([C@@H](C)O)C(=O)N1)[C@@H](C)O)[C@@H](C)O)[C@@H](C)O)[C@@H](C)O)C(=O)NCC(=O)N[C@H](C(=O)NCC(=O)N[C@@H](C)C(=O)N1CCC[C@H]1C(N)=O)C(C)C [hCT, Human CT]
Emax [5]: 43%

C[C@H](CCC(=O)O)C[C@H](C)C[C@H](C)C(=O)/C=C(\O)[C@H](C)C[C@H](C)C/C=C/[C@@H](C)[C@@H](O)[C@@H](C)[C@@H](O)C[C@@H]1CC[C@@](C)([C@H]2CC[C@@](C)([C@@H](C)O)O2)O1 [ionomycin]
intracellular Ca2+ mobilisation response [1]: robust response | intracellular Ca2+ mobilisation response [2]: robust response | intracellular Ca2+ mobilisation response [3]: robust response

CC(C)C[C@H](NC(=O)[C@H](CCCCN)NC(=O)CNC(=O)[C@H](CC(C)C)NC(=O)[C@@H](NC(=O)[C@@H]1CSSC[C@H](N)C(=O)N[C@@H](CO)C(=O)N[C@@H](CC(N)=O)C(=O)N[C@@H](CC(C)C)C(=O)N[C@@H](CO)C(=O)N[C@@H]([C@@H](C)O)C(=O)N1)C(C)C)C(=O)N[C@@H](CO)C(=O)N[C@@H](CCC(N)=O)C(=O)N[C@@H](CCC(=O)O)C(=O)N[C@@H](CC(C)C)C(=O)N[C@@H](Cc1c[nH]cn1)C(=O)N[C@@H](CCCCN)C(=O)N[C@@H](CC(C)C)C(=O)N[C@@H](CCC(N)=O)C(=O)N[C@H](C(=O)N[C@@H](Cc1ccc(O)cc1)C(=O)N1CCC[C@H]1C(=O)N[C@@H](CCCNC(=N)N)C(=O)N[C@H](C(=O)N[C@@H](CC(N)=O)C(=O)N[C@H](C(=O)NCC(=O)N[C@@H](CO)C(=O)NCC(=O)N[C@H](C(=O)N1CCC[C@H]1C(N)=O)[C@@H](C)O)[C@@H](C)O)[C@@H](C)O)[C@@H](C)O [sCT, Salmon CT]
Emax [5]: 35%

human calcitonin (from UniProt P01258 85-116) (peptide)
Emax of cAMP accumulation in SB2b cells (% of forskolin) [6]: 43

salmon calcitonin (peptide)
Emax of cAMP accumulation in SB2b cells (% of forskolin) [6]: 35 | pEC50 of cAMP accumulation (30 min) in SB2b cells [6]: 9.4 pEC50

αCGRP(8–37) (peptide)
shift of the cAMP potency of αCGRP by 1 μM αCGRP(8–37) in PB1, JK2 and WK1 cells; blocks m4 + m8 [7]: 100 fold

αCGRP(8–37): CGRP receptor antagonist (VTHRLAGLLSRSGGVVKNNFVPTNVGSKAF; ends and bridges not checked; UniProt P06881 90-119, looked up, fragment)
effect of antagonist on amylin cAMP response [8]: abolishing this response | effect of antagonist on amylin cAMP response [9]: abolishing this response

B1: adrenomedullin (peptide)
peptide: YRQSMNNFQGLRSFGCRFGTCTVQKLAHQIYQFTDKDKDNVAPRSKISPQGY
pEC50 of cAMP accumulation (30 min) in JK2 cells [7]: 7 pEC50 | pEC50 of cAMP accumulation (30 min) in PB1 cells [7]: 7.3 pEC50 | pEC50 of cAMP accumulation (30 min) in WK1 cells [7]: 6.8 pEC50 | pEC50 of cAMP accumulation to AM alone, antagonist experiment, JK2 cells [7]: 7.2 pEC50 | pEC50 of cAMP accumulation to AM alone, antagonist experiment, PB1 cells [7]: 7.2 pEC50 | pEC50 of cAMP accumulation to AM alone, antagonist experiment, WK1 cells [7]: 6.9 pEC50 | pEC50 of cAMP accumulation to AM with 1 μM AM(22–52), JK2 cells [7]: 7.3 pEC50 | pEC50 of cAMP accumulation to AM with 1 μM AM(22–52), PB1 cells [7]: 7.1 pEC50 | pEC50 of cAMP accumulation to AM with 1 μM AM(22–52), WK1 cells [7]: 6.7 pEC50

KCNTATCATQRLANFLVRSSNNLGPVLPPTNVGSNTY [amylin (rAmy)]
pEC50 of cAMP accumulation (30 min) in SB2b cells [6]: 6.8 pEC50 | pEC50 of cAMP accumulation (30 min) in JK2 cells [10]: 5.9 pEC50 | pEC50 of cAMP accumulation (30 min) in PB1 cells [10]: 6.1 pEC50
